Measured values from patent US20180155451A1 (published 2018).
Where two headings read alike, the source gives them in different places.

T1: FcgRIIa type R extracellular domain with C-terminal His tag (human, UniProt P12318 34-217)
T1 construct: extracellular domain; also called FcgRIIaR; FcgRIIa R; not shown: His tag at the C terminus
T1 sequence (looked up): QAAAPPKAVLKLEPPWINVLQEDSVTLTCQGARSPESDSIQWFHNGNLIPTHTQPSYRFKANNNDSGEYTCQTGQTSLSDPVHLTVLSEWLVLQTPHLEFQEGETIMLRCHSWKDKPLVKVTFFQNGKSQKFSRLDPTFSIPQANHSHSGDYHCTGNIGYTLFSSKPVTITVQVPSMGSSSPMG

T2: FcgRIIa type H extracellular domain with C-terminal His tag (human, UniProt P12318 34-217)
T2 construct: extracellular domain; also called FcgRIIaH; FcgRIIa H; not shown: His tag at the C terminus
T2 sequence (looked up): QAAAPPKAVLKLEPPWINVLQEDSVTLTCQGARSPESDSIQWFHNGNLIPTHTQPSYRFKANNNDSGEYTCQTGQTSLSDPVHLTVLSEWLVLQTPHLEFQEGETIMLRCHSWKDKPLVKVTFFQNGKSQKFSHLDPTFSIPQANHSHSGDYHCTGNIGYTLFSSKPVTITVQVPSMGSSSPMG

T3: FcgRIIaR (human, UniProt P12318 34-217)
T3 construct: extracellular domain; R131 allotype; also called FcγRIIa R; FcgRIIa type R; not shown: C-terminal His tag
T3 sequence (looked up): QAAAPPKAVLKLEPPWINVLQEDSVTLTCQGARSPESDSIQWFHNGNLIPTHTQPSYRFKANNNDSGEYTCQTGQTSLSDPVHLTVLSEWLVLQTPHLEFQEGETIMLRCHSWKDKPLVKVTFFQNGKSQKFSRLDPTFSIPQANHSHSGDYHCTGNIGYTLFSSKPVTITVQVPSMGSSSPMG

T4: FcgRIIaH (human, UniProt P12318 34-217)
T4 construct: extracellular domain; H131 allotype; also called FcγRIIa H; FcgRIIa type H; not shown: C-terminal His tag
T4 sequence (looked up): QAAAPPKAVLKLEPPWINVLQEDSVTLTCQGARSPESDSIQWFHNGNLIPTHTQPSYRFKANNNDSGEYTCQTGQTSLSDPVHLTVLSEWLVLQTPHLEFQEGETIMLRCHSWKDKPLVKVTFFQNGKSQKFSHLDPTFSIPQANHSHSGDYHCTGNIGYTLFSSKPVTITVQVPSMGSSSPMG

T5: FcgRIIb (human, UniProt P31994 43-217)
T5 construct: extracellular domain; also called FcγRIIb; CD32B; not shown: C-terminal His tag
T5 sequence (looked up): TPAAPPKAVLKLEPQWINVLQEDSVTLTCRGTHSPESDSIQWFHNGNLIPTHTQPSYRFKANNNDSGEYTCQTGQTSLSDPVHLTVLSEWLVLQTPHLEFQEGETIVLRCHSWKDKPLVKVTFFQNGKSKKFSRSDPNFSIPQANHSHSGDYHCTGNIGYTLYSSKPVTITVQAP


Assays:
[1] = target: T1, FcgRIIa type R extracellular domain …; assay: SPR (Biacore), antibody captured on chip, soluble FcgR as analyte, kinetic 1:1 fit
[2] = target: T1, FcgRIIa type R extracellular domain …; assay: as above; remark: listed apart in the source
Experimental: The variants were assessed for the binding activity to FcgR Ia, FcgR IIaR, FcgR IIaH, and FcgRIIb according to the method described in Reference Example 8.
(§1) Analysis of interaction between obj ective antibody and the FcγR was carried out using Biacore T100 (GE Healthcare), Biacore T200, Biacore A100, and Biacore 4000. HBS-EP+ (GE Healthcare) was used as the running buffer, and the measurement temperature was set to 25° C. Chips produced by immobilizing the antigen peptide by the amine coupling method to a Series S sensor Chip CM5 (GE Healthcare), chips produced by allowing preliminarily biotinylated antigen peptides to interact with and immobilize onto a Series S Sensor Chip SA (certified) (GE Healthcare), chips produced by immobilizing Protein L (ACTIGEN, BioVision) to Series S Sencor Chip CM5 (GE Healthcare), or chips produced by immobilizing Protein A/G (Thermo Scientific) to Series S Sencor Chip CM5 (GE Healthcare) were used. Antibodies of interest were captured onto these chips, and allowed to interact to each FcγR diluted with running buffer. To regenerate and repeatedly use the chip, the antibodies captured onto the chip were washed off by reacting 10 mM glycine-HCl, pH 1.5.

[3] = target: T6, FcgRIIIa type V extracellular domain with C-terminal His tag (human, UniProt P08637 17-208); assay: SPR (Biacore), antibody captured on chip, soluble FcgR as analyte; too weak for kinetics, KD from steady-state 1:1 equation
T6 construct: extracellular domain; also called FcgRIIIaV; FcgRIIIa V; not shown: His tag at the C terminus
T6 sequence (P08637 17-208 F176V): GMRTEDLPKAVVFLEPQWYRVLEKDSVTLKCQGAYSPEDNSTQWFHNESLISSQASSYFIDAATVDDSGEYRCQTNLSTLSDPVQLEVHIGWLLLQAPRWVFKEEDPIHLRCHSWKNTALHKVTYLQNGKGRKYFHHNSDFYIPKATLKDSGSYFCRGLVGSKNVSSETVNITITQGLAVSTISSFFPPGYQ
Experimental: (§2) KD can be calculated by substituting the values of Rmax, RI, and C into this equation. The values of RI and C can be determined from the sensorgram of the measurement results and measurement conditions. Rmax was calculated according to the following method.

[4] = target: T2, FcgRIIa type H extracellular domain …; assay: as above
Experimental: as §2

[5] = target: T6, FcgRIIIa type V extracellular domain …; assay: as above; remark: listed apart in the source
Experimental: as §2

[6] = target: T2, FcgRIIa type H extracellular domain …; assay: as above; remark: listed apart in the source
Experimental: as §2

[7] = target: T7, FcgRIa (human, UniProt P12314 16-292); assay: SPR (Biacore 4000), antibody captured on chip, FcgR as analyte; kd below the limit 5e-5 /s
T7 construct: extracellular domain; also called FcγRIa; FcγRI; not shown: C-terminal His tag
T7 sequence (P12314 16-292): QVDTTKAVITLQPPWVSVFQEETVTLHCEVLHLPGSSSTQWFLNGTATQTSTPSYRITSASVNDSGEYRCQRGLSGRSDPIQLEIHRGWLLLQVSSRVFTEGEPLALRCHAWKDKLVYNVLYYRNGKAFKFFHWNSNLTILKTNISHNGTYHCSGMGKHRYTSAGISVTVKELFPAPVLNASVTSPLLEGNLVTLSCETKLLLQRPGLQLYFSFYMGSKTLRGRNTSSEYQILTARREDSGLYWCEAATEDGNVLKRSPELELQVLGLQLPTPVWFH
Experimental: (§3) The variants described above were assessed for their binding to FcgR according to the method described in Reference Example 8.
as §1

[8] = target: T8, FcgRIIIaV (human, UniProt P08637 17-208); assay: SPR (Biacore); KD of H240-Kn120/H240-Hl068/L73-k0 divided by KD of the sample
T8 construct: extracellular domain; V158 allotype; also called FcγRIIIa V; not shown: C-terminal His tag
T8 sequence (P08637 17-208 F176V limits assumed): as the sequence (P08637 17-208 F176V) above
Experimental: as §3, §1

[9] = target: T3, FcgRIIaR; assay: as above
Experimental: as §3, §1

[10] = target: T4, FcgRIIaH; assay: as above
Experimental: as §3, §1

[11] = target: T5, FcgRIIb; assay: as above
Experimental: as §3, §1

[12] = target: T9, FcgRIIIaF (human, UniProt P08637 17-208); assay: as above
T9 construct: extracellular domain; F158 allotype; also called FcγRIIIa F; not shown: C-terminal His tag
T9 sequence (P08637 17-208): as the sequence (P08637 17-208 F176V) above, with V160F counted along it
Experimental: as §3, §1

[13] = target: T8, FcgRIIIaV; assay: SPR (Biacore), antibody captured on chip, FcgR as analyte
Experimental: as §3, §1

[14] = target: T3, FcgRIIaR; assay: as above
Experimental: as §3, §1

[15] = target: T4, FcgRIIaH; assay: as above
Experimental: as §3, §1

[16] = target: T5, FcgRIIb; assay: as above
Experimental: as §3, §1

[17] = target: T9, FcgRIIIaF; assay: as above
Experimental: as §3, §1

Row | Binder | Kd [1] | Kd [2] | Kd [3] | Kd [4] | Kd [5] | Kd [6] | Kd [7] | Relative KD [8] | Relative KD [9] | Relative KD [10] | Relative KD [11] | Relative KD [12] | Kd [13] | Kd [14] | Kd [15] | Kd [16] | Kd [17]
1 | IL6R-BP208/IL6R-L (antibody, human IgG1, kappa, Homodimer; IL6R-BP208 is IL6R-B3 with E233D, G237D, P238D, H268D, P271G and A330R) heavy: QVQLQESGPGLVKPSETLSLTCAVSGHSISHDHAWSWVRQPPGEGLEWIGFISYSGITNYNPSLQGRVTISRDNSKNTLYLQMNSLRAEDTAVYYCARSLARTTAMDYWGEGTLVTVSSASTKGPSVFPLAPSSKSTSGGTAALGCLVKDYFPEPVTVSWNSGALTSGVHTFPAVLQSSGLYSLSSVVTVPSSSLGTQTYICNVNHKPSNTKVDKKVEPKSCDKTHTCPPCPAPDLLGDDSVFLFPPKPKDTLMISRTPEVTCVVVDVSDEDGEVKFNWYVDGVEVHNAKTKPREEQYNSTYRVVSVLTVLHQDWLNGKEYKCKVSNKALPRPIEKTISKAKGQPREPQVYTLPPSRDELTKNQVSLTCLVKGFYPSDIAVEWESNGQPENNYKTTPPVLDSDGSFFLYSKLTVDKSRWQQGNVFSCSVMHEALHNHYTQESLSLSP light: not shown | 850 nM | 850 nM | 53000 nM | 8300 nM | 53000 nM | 8300 nM |  |  |  |  |  |  |  |  |  |  | 
2 | H240-Kn120/H240-Hl073/L73-k0 (antibody, human IgG1, kappa, Heterodimerized anti-epiregulin antibody; G236S in the Hl068 chain; also called H240-Kn120/H240-HI073/L73-k0) heavy 1: QDQLVQSGAEVKKPGASVKVSCKASGFNIKDTYIQWVRQAPGQGLEWMGRIDPLRKQTKYREKFEGRVTITADTSTNTAYMELSSLRSEDTAVYYCVRSGREFDYWGQGTLVTVSSASTKGPSVFPLAPSSKSTSGGTAALGCLVKDYFPEPVTVSWNSGALTSGVHTFPAVLQSSGLYSLSSVVTVPSSSLGTQTYICNVNHKPSNTKVDKKVEPKSCDKTHTCPPCPAPEYYWGPMVFLFPPKPKDTLMISRTPEVTCVVVDVSDEDPEVKFNWYVDGVEVHNAKTKPREEQYNATYRVVSVLTVLHQDWLNGKEYKCKVSNKDLPAPIEKTISKAKGQPREPQVCTLPPSRDELTKNQVSLWCLVKGFYPSDIAVEWESNGQPENNYKTTPPVLDSDGSFFLYSKLTVDKSRWQQGNVFSCSVMHEALHNHYTQKSLSLSP heavy 2: QDQLVQSGAEVKKPGASVKVSCKASGFNIKDTYIQWVRQAPGQGLEWMGRIDPLRKQTKYREKFEGRVTITADTSTNTAYMELSSLRSEDTAVYYCVRSGREFDYWGQGTLVTVSSASTKGPSVFPLAPSSKSTSGGTAALGCLVKDYFPEPVTVSWNSGALTSGVHTFPAVLQSSGLYSLSSVVTVPSSSLGTQTYICNVNHKPSNTKVDKKVEPKSCDKTHTCPPCPAPELLSGPSVFLFPPKPKDTLMISRTPEVTCVVVDVSHEEPEVKFNWYVDGVEVHNAKTKPREEQYNSTYRVVSVLTVLHQDWLNGKEYKCKVSNDALPKPIEETISKAKGQPREPQVYTLPPSRCELTKNQVSLSCAVKGFYPSDIAVEWESNGQPENNYKTTPPVLDSDGSFFLVSKLTVDKSRWQQGNVFSCSVMHEALHNHYTQKSLSLSP light: DIQMTQSPSSLSASVGDRVTITCRASQDIHKYIAWYQQKPGQAPRLLIQYTSTLQPGVPSRFSGSGSGTDYTFTISSLQPEDIATYYCLQYEQLRTFGGGTKVEIKRTVAAPSVFIFPPSDEQLKSGTASVVCLLNNFYPREAKVQWKVDNALQSGNSQESVTEQDSKDSTYSLSSTLTLSKADYEKHKVYACEVTHQGLSSPVTKSFNRGEC |  |  |  |  |  |  | < 0.028 nM | 0.2 | 1.3 | 2 | 0.7 | 0.3 | 1.8 nM | 15 nM | 21 nM | 210 nM | 8.2 nM
